For the assay, the target named is T1, human PSMA on cells (Cho-hPSMA, CHO-K1 cells overexpressing full-length human PSMA) (human, UniProt Q04609 1-750).
T1 construct: whole, on cells; also called cell surface PSMA; PSMA-expressing Lncap cells
Put plainly: cell ELISA (OD450), Cho-hPSMA cells. On the procedure:
Experiment 2: Cells were cultured and inoculated onto a cell plate using the same method as in Experiment 1. The antibodies were serially diluted, and the antibody solutions were added to the cell plate at 100 μL/well. The plate was incubated at 4° C. for 1 h and then washed. An HRP-Goat Anti-human IgG (H+L) secondary antibody dilution (1:8000) was added to the cell plate at 100 μL/well, and the plate was incubated at 4° C. for 1 h and then washed by centrifugation. After color development with TMB, the reaction was stopped with 0.1 M sulfuric acid, and OD450 values were measured.

By EC50 is commonly meant the concentration giving half of the maximal effect.

Substitutions are numbered along the chain they refer to.

T1 sequence (Q04609 whole entry): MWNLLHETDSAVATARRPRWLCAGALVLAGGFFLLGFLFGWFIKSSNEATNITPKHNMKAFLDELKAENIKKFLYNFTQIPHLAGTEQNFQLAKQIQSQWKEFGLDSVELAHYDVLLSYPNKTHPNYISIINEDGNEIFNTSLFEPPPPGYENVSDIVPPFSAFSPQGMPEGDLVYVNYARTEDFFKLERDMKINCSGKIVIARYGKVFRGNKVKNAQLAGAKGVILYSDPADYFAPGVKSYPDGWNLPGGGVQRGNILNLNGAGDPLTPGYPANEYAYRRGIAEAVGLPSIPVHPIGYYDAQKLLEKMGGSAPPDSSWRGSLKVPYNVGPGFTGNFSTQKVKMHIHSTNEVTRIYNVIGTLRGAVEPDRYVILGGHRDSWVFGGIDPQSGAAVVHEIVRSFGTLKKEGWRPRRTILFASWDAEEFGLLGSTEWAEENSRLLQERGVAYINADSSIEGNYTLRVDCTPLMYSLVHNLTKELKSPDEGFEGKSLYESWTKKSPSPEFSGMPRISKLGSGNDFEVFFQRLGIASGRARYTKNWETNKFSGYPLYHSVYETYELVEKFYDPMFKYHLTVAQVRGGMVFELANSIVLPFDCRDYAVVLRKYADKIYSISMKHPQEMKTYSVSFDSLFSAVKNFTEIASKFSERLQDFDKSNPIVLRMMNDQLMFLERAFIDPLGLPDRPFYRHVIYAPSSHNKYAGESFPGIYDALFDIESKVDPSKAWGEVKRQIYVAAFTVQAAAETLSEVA

B1: hu50H1L1 (antibody, human IgG1, kappa)
heavy: not shown
light: DIVMTQSPLSLPVTPGEPASISCRSSQSILHSNGNTYLEWYLQKPGQSPQLLIYRVSNRFSGVPDRFSGSGSGTDFTLKISRVEAEDVGVYYCFQGLHVPPTFGQGTKLEIKRTVAAPSVFIFPPSDEQLKSGTASVVCLLNNFYPREAKVQWKVDNALQSGNSQESVTEQDSKDSTYSLSSTLTLSKADYEKHKVYACEVTHQGLSSPVTKSFNRGEC
Turning to B1, the concentration for a half-maximal effect (EC50) came to 0.0679 µg/mL.

B2: hu50H2L2 (antibody, human IgG1, kappa)
heavy: not shown
light: B1 light with I2V, V3F
As to B2, the response was half-maximal at 0.0477 µg/mL (EC50).

B3: hu50H2L3 (antibody, human IgG1, kappa, V domains shown)
VH: EVQLVQSGAEVKKPGASVKVSCKASGFTFTNYGISWVRQAPGQGLEWMGEIYPRSGNTYYNTNFKGRVTLTADKSTSTAYMELRSLRSEDTAVYYCARNPFTTVVEGFAFWGQGTLVTVSS
VL: DIVMTQSPLSLPVTPGEPASISCRSSQSILHSYGNTYLEWYLQKPGQSPQLLIYRVSNRFSGVPDRFSGSGSGTDFTLKISRVEAEDVGVYYCFQGLHVPPTFGQGTKLEIKR
Consider B3, for which the EC50 was found to be 0.104 µg/mL.

B4: hu50H2L1 (antibody, human IgG1, kappa)
heavy: not shown
light: B1 light
B4 gave a concentration for a half-maximal effect (EC50) of 0.0487 µg/mL.

B5: hu50H1L3 (antibody, human IgG1, kappa, V domains shown)
VH: B3 VH with L70M, A72T
VL: B3 VL
B5 yielded an EC50 of 0.108 µg/mL.

B6: hu15H3L1 (antibody, human IgG1, kappa, V domains shown)
VH: EFQLVQSGAEVKKPGASVKVSCKASGYSFTDHNMNWVRQAPGQRLEWMGLINPNYGTADYNQKFKGRVTITVDQSASTAYMELSSLRSEDTAVYYCARGSSLFAYWGQGTLVTVSS
VL: DIQMTQSPSSLSASVGDRVTITCKASQGVDTAVAWYQQKPGKVPKLLIYWASTRHTGVPSRFSGSGSGTDFTLTISSLQPEDVATYYCQQYSRYPLTFGQGTKLEIKR
Molecule B6 gave an EC50 of 0.0731 µg/mL. The EC50 values of the last two molecules are within 1.5-fold of each other.

B7: hu15H2L1 (antibody, human IgG1, kappa, V domains shown)
VH: B6 VH with V72R, Q74T
VL: B6 VL
B7 came in with an EC50 of 0.0871 µg/mL.

B8: hu15H5L2 (antibody, human IgG1, kappa, V domains shown)
VH: B6 VH with M48I, V68A, I70L, S77T
VL: B6 VL with V43S, S60D
In turn, B8 registered an EC50 of 0.0818 µg/mL. The EC50 values of the last two molecules are within 1.5-fold of each other.

B9: hu15H3L2 (antibody, human IgG1, kappa, V domains shown)
VH: B6 VH
VL: B6 VL with V43S, S60D
B9 returned an EC50 of 0.0821 µg/mL.

B10: hu15H2L2 (antibody, human IgG1, kappa, V domains shown)
VH: B6 VH with V72R, Q74T
VL: B6 VL with V43S, S60D
Molecule B10 gave an EC50 of 0.0874 µg/mL.

B11: hu15H1L1 (antibody, human IgG1, kappa, V domains shown)
VH: B6 VH with S28T, V72R, Q74T
VL: B6 VL
For the molecule B11, the EC50 stood at 0.0683 µg/mL.

B12: hu15H1L2 (antibody, human IgG1, kappa, V domains shown)
VH: B6 VH with S28T, V72R, Q74T
VL: B6 VL with V43S, S60D
For B12, the EC50 was 0.075 µg/mL.

B13: hu15H5L1 (antibody, human IgG1, kappa, V domains shown)
VH: B6 VH with M48I, V68A, I70L, S77T
VL: B6 VL
For B13, the concentration giving a half-maximal response (EC50) was 0.0847 µg/mL.

B14: hu15H4L1 (antibody, human IgG1, kappa, V domains shown)
VH: B6 VH with I70L, S77T
VL: B6 VL
B14 had an EC50 of 0.069 µg/mL.

B15: hu41H1L2 (antibody, human IgG1, kappa, V domains shown)
VH: EVQLVQSGAEVKKPGASVKVSCKASGYTFTSYGISWVRQAPGQGLEWMGEIFPRRGNTYYNEKFRGRVTMTTDKSTSTAYMELRSLRSDDTAVYYCARVFDGYYNYAMDYWGQGTTVTVSS
VL: DIQMTQSPSSLSASVGDRVTITCRASQDIGSSLNWLQQKPGKAIKRLIYATSSLDSGVPSRFSGSRSGTDYTLTISSLQPEDFATYYCLQYASSPYTFGGGTKVEIKR
Regarding B15, it took 0.982 µg/mL to reach a half-maximal effect (EC50).

B16: hu41H2L1 (antibody, human IgG1, kappa, V domains shown)
VH: B15 VH with M70L, T72A
VL: B15 VL with I44P, Y71F
In the case of B16, the EC50 came to 1.22 µg/mL.

B17: hu41H1L3 (antibody, human IgG1, kappa, V domains shown)
VH: B15 VH
VL: B15 VL with K42G, T69S
The molecule B17 displayed an EC50 of 0.985 µg/mL.

B18: hu41H1L1 (antibody, human IgG1, kappa, V domains shown)
VH: B15 VH
VL: B15 VL with I44P, Y71F
B18: the midpoint of the response, the EC50, lay at 1.08 µg/mL.

B19: hu41H2L3 (antibody, human IgG1, kappa, V domains shown)
VH: B15 VH with M70L, T72A
VL: B15 VL with K42G, T69S
Consider B19, for which the EC50 was 1.21 µg/mL.

B20: hu31H1L2 (antibody, human IgG1, kappa, V domains shown)
VH: EVQLVESGGGLVQPGGSLRLSCAASGFTFSDYYMAWVRQAPGKGLEWVASINYDGSSTYYLDSLKSRFTISRDNAKNSLYLQMNSLRAEDTAVYYCAGSDGYWAWFAYWGQGTLVTVSS
VL: DIQMTQSPSSLSASVGDRVTITCRASGNIHNYLAWYQQKPGKAPQLLVYNAETLADGVPSRFSGSGSGTDFTLTISSLQPEDFATYYCQHFWSTPPTFGGGTKVEIKR
As for B20, the EC50 was found to be 0.12 µg/mL.

B21: hu31H1L3 (antibody, human IgG1, kappa, V domains shown)
VH: B20 VH
VL: B20 VL with A43S, D70Q
Molecule B21 gave an EC50 of 0.124 µg/mL.

B22: hu43H2L1 (antibody, human IgG1, kappa, V domains shown)
VH: EVQFVESGGGLVQPGGSLRLSCAASGFTFSNYWMNWVRQAPGKGLEWVAQVRLKSDNYATHYAESVKGRFTISREDAKNSAYLQMNSLRAEDTAVYYCSENYYGPAGPFDFWGQGTTVTVSS
VL: DIQMTQSPSSVSASVGDRVTITCKASQNVHTSVAWYQQKPGKSPKLLIYSASNRYSGVPSRFSGSGSGTDFTLTISSLQPEDFATYYCQQYSSYPLTFGQGTKLEIKR
B22 returned an EC50 of 6.17 µg/mL.

B23: hu46H3L2 (antibody, human IgG1, kappa, V domains shown)
VH: EVQLVESGGGLVKPGGSLRLSCAASGFTFSNYGMSWVRQAPGKGIKWVSTIGSGGGYTYYSDSVKGRFTISRDNAKNSLYLQMNSLRAEDTAVYYCVRHPQIGYWGQGTLVTVSS
VL: DIQMTQSPSSLSASVGDRVTITCKASQSVGTAVAWYQQKPGKAPKLLIYSASSRYTGVPSRFSGSGSGTDFTLTISSLQPEDFADYFCHQYSSYPLTFGGGTKVEIKR
Molecule B23 came in with a concentration giving a half-maximal response (EC50) of 0.0617 µg/mL.

B24: hu43H3L1 (antibody, human IgG1, kappa, V domains shown)
VH: B22 VH with V37L
VL: B22 VL
B24 had an EC50 of 2.83 µg/mL.

B25: hu46H3L1 (antibody, human IgG1, kappa, V domains shown)
VH: B23 VH
VL: B23 VL with D85T, F87Y
B25 returned an EC50 of 0.0597 µg/mL.

B26: hu46H1L2 (antibody, human IgG1, kappa, V domains shown)
VH: B23 VH with I45L, K46E, V97A
VL: B23 VL
In turn, B26 came in with an EC50 of 0.0813 µg/mL.

B27: hu46H4L1 (antibody, human IgG1, kappa, V domains shown)
VH: B23 VH with S49A
VL: B23 VL with D85T, F87Y
B27 showed an EC50 of 0.0843 µg/mL.

B28: hu43H1L1 (antibody, human IgG1, kappa, V domains shown)
VH: B22 VH with E75D, D76N
VL: B22 VL
B28: the EC50 is 6.22 µg/mL.

B29: hu46H2L3 (antibody, human IgG1, kappa, V domains shown)
VH: B23 VH with I45L, K46E
VL: B23 VL with S60D
With B29, the EC50 amounted to 0.0805 µg/mL.

B30: hu46H1L3 (antibody, human IgG1, kappa, V domains shown)
VH: B23 VH with I45L, K46E, V97A
VL: B23 VL with S60D
On to B30, for which the EC50 came to 0.123 µg/mL.

B31: hu46H2L1 (antibody, human IgG1, kappa, V domains shown)
VH: B23 VH with I45L, K46E
VL: B23 VL with D85T, F87Y
The molecule B31 displayed an EC50 of 0.0788 µg/mL.

B32: hu46H4L2 (antibody, human IgG1, kappa, V domains shown)
VH: B23 VH with S49A
VL: B23 VL
In turn, B32 returned an EC50 of 0.079 µg/mL. This EC50 and that of the molecule before are within 1.5-fold of each other.

B33: hu46H3L3 (antibody, human IgG1, kappa, V domains shown)
VH: B23 VH
VL: B23 VL with S60D
The molecule B33 displayed an EC50 of 0.0912 µg/mL.

B34: hu46H1L1 (antibody, human IgG1, kappa, V domains shown)
VH: B23 VH with I45L, K46E, V97A
VL: B23 VL with D85T, F87Y
In turn, B34 gave an EC50 of 0.136 µg/mL. The EC50 values of the last two molecules are within 1.5-fold of each other.

These data come from patent US20250043022A1 (JIANGSU HENGRUI PHARMACEUTICALS, published 2025).
